Measured values from the DeepSol protein solubility set.

Assay: soluble on expression in E. coli; label from the status in PepcDB or PDB records

Sequence	soluble on expression in E. coli
NIILQEDNAQLDEVVVVGYGTMKKKDLTGSVTAVKGDELAARRTTQLSTALQGALSGVMVSRDNGAPGSSASIQIRGVTTIGDSSPLVIIDGIPGDINSVNPEDVESMSVLKDAASASIYGSRAAAGVIVITTKRAKSGD	not soluble
NKDMNFTIRANYTFSQNVIDYFEENKLPYDYLSVTGKPFNILRGYISEGLFASKEEINTSPDQSGFGTIRPGDIKYRDVNGDGIINEDDKVPLSYSNQLPRMMYGFGGDFQWKDLTVSILFKGSAKVDYYRAGLGNDYGWIPFYNGDLGNVIKLANNPKNRWTPAWYSGTTATENPNAEFPRLSYGKNTNNSQLSSFWRRNGSFLRLQEVSLRYSLKHLPWIKSVGLSSVDLEFVANNLFTIDKVKYFDPEQASANGAVYPIPATYAFQVYLRF	not soluble
NKFNTWNDSRGNYWSDYEGSDENGDGIGDSAYAVNPEAGSMDYMPLMEYLHSSPVLPTARFTSDITEGFAPLSVRFKDFSENATSRLWMFGDGNTSDSPSPLHTFFNEGEYIVSLIVSNENDSDSASVTIRA	soluble
NLMYYGTFIIDNPVKKGAEKFIAQCREISVPVFVATGDTTKAAENIAKVLCPANAGKIVTLRADQIDEKGIEFLNEENYPSDSTVIFSGINEAILNRFQKLMGREGAKRPVVIFAEMSTEGKGVLARYLKDHHYFVVANGDGTNDVMMMKNSNVVIAHHSDDGTFAPGVDGLTN	not soluble
NPAIAMTEKEIKEYGFPFDARFCSLPLVHADDLKQIFGRYASEVCCRYLRPFDSDYYTLATKNFYQTDIAALDPTAVVGGEDTIRGLMRVATEVCFVIESGKPGAFHPRIHFEKSFRYAHLSLEEKKAWQRLSDDYFHKRNDDLWKQEALSRLIPLLSSTDMLVCVEDLGMIPPAVPVVMEQLQLLSLILERISKEPGQDFADMSRQPYCSVCTTSTHDMAPLRLWWQENELPRRHYYSMILGEKGTAPETCTPETARRILRQHLLSTSMLAIFPLADWLSLSGELQGIVAPEDEQINKPEISDHYWRYRMPISIESLSEDYRELNESIASLIRTSGRG	not soluble
NTAPSLTVPECAICLQTCVHPVSLPCKHVFCYLCVKGASWLGKRCALCRQEIPEDFLD	soluble
PAEIHIITAARGRGKSTLAGKLAEQFAKTEQVILTAHRSSSIQKILQTASINIPFFAPDKLLNLIETKQISADHLLFIDEAACIPLPILQQLGNYFKKVILTTTTQNYEGTGRGFKLKLVKQLHRTTKEWQLFQPLRWSNHDRLEQFTNELLLLN	not soluble
PAIDYKTAFHLAPIGLVLSRDRVIEDCNDELAAIFRCARADLIGRSFEVLYPSSDEFERIGERISPVMIAHGSYADDRIMKRAGGELFWCHVTGRALDRTAPLAAGVWTFEDLSATRRVA	soluble
PHFIVECSDNIREEADLPGLFAKVNPTLAATGIFPLAGIRSRVHWVDTWQMADGQHDYAFVHMTLKIGAGRSLESRQQAGEMLFELIKTHFAALMESRLLALSFEIEELHPTLNFKQNNVHALFK	soluble
PHPADPRLLIGQHVGAGPMVLASPWPRIVAPADFDTRFQGEARDLVLAHERVHLARGDAQINALVVALQCLCWFNPLVHLGAHRLRLDQEMACDEAVLARRPEARRLYAETLLDTLLAPR	not soluble
PLGSDHWGKGDMSDEDDENEFFDAPEIITMPENLGHKRTGSHHHHHH	soluble
PLWVAPDGHIFLEAFSPVYKYAQDFLVAIAEPVCRPTHVHEYKLTAYSLYAAVSVGLQTSDITEYLRKLSKTGVPDGIMQFIKLCTVSYGKVKLVLKHNRYFVESCHPDVIQHLLQDPVIRECRLRNSEGEATELITETF	not soluble
PNFSGNWKIIRSENFEELLKVLGVNVMLRKIAVAAASKPAVEIKQEGDTFYIKVSTTVRTTEINFKVGEEFEEQTVDGRPCKSLVKWESENKMVCEQKLLKGEGPKTSWTLELTNDGELIDTMTADDVVCTKVFVRE	soluble
PRGSHMIILAFDIFGTVLDTSTVIQEFRNKQLEYTWLLTIMGKYVEFEEITKITLRYILKVRGEESKFDEELNKWKNLKAYEDTKYLKEISEIAEVYALSNGSINEVKQHLERNGLLRYFKGIFSAESVKEYKPSPKVYKYFLDSIGAKEAFLVSSNAFDVIGAKNAGMRSIFVNRKNTIVDPIGGKPDVIVNDFKELYEWILRYK	soluble
PRTRECDYCGTDIEPGTGTMFVHKDGATTHFCSSKCENNADLGREARNLEWTDTARGEAGEAEDEA	soluble
